Source: the DeepSol protein solubility set

Assay: soluble on expression in E. coli; label from the status in PepcDB or PDB records

Sequence | soluble on expression in E. coli
MSLGKLIVPILKSPSHLGHSSSRVNRLYNEDKYSANLLQVKESQIFNFSIFDGHGGDQCSTYLAENLSLALEDLDQLVENDNDRQELFKKYAKNVGGYWKRWYKHRDNTVANWEKERIKLKNFLSDDLATRVPLAFLNADYNFFSKEQKSGSTCTSAMIETIYSKPGTFQPFFENYYFNRHTISKLSIGHLGDTRAIVADKNGLAHTLTTDHHPLNPIEAKRLRKYAANFFMTDSFGEERFVALANTRAFGDVDYKEVGVTAEPDFNQYIIGDLDAIKQFLTPDEIEKYTIGGLGGDESFLILCSDGVTNIMTDQEIADIVLTHVNLKGQTVATPQYCAEQVIKFVEFVGGDDNATCLVIRLNGWGNEGHHHHHH | not soluble
GSHMQTHAARMRTFMYWPSSVPVQPEQLASAGFYYVGRNDDVKCFCCDGGLRCWESGDDPWVEHAKWFPRCEFLIRMKGQEFVDEIQGRYPHLLEQLLSTS | soluble
MSKAGASLATCYGPVSADVMAKAENIRLLILDVDGVLSDGLIYMGNNGEELKAFNVRDGYGIRCALTSDIEVAIITGRKAKLVEDRCATLGITHLYQGQSNKLIAFSDLLEKLAIAPENVAYVGDDLIDWPVMEKVGLSVAVADAHPLLIPRADYVTRIAGGRGAVREVCDLLLLAQGKLDEAKGQSI | soluble
MVKDEVIKQISTPLTSPAFPRGPYKFHNREYFNIVYRTDMDALRKVVPEPLEIDEPLVRFEIMAMHDTSGLGCYTESGQAIPVSFNGVKGDYLHMMYLDNEPAIAVGRELSAYPKKLGYPKLFVDSDTLVGTLDYGKLRVATATMGYKHKALDANEAKDQICRPNYMLKIIPNYDGSPRICELINAKITDVTVHEAWTGPTRLQLFDHAMAPLNDLPVKEIVSSSHILADIILPRAEVIYDYLK | soluble
MAHHHHHHMTTPSSPAHPAAHLCDVTGDTAAAAAAGASGMMADTARMLSPRPSVTRTAAKTSGGPVQVALSQSCPHPHQQHQQHHQHHQHQQHHQHHQHQQHHQHHQHQQHHQHQQHQQHQQPCLGGLLDPFFLTEIDENVQAFSGTAATSGSHTSLSGDGGSPSAKDAALCSPCVECVPPARGKTVRKSRSACELRLECLLSTSMGSDITKDEADDSKRKRRQPSSFPSSSRRDTAGCFSSVEVMGPTDEVAAADEAIATTAATAADAEAGVKSRDPKRRSLLPTWVTARTSTVTRAGAPPTDSGETSRTANGCLASPRSFSLSHSKPSSGSRDTSEGSHVLDCEATLLPSESVGVVASTHSSTVSSYASEAQGRAAEEATNCATAGGATVGSKMTLLVSLIMRCTPSRRGPPHSASPTEDGAADAERLPPLELYPPLVSPSSIEEASCGVGYDVPSAHHDDMYAMKDITVAVKEDVNQRRGALAKEPTLPASTASRRTQHTKWSMHPSPVSAWLLGSSAVGASLSTALWRAALRSRPAMHTPCSCVSARAEQHSVQVLSRVLANGSAVSTKVLAMRSWAEFERASVSFPSTWSASVSAHLSAVPPSLTTDSTTLRGPSMLHLTLPPLPDQTSVGPASIAYINRAPSRPAATAEEVVARQPCDVWRLARCYAHFERAVEQRGEDGVWSARGISSLATWDSVKLVVAAGVASRDAESSTDEGCEDGGAWLLPSFTLDVVPDTLDTPSPASPQVTSTFPFSPVVSVLRAEKEEEVFTSAVMWALEMMTGVR | soluble
MVEINLRELKKYANPFFLTIRKDKILVNNKRMARLSRTKMDKIEEEFGIPVIYSKTYEYVSTKVGRFINKHKIIAPRDIVIVGLSGGKDSLLLLHLLEVYRRKYGIKLIAVTVDVNIGGIRPWKEDTEGVKLIKHHCEMLNVPHIILKNDLDVVELSEILTKHSKGMEFSPCFSCSVIKRHLLGKLAKEIAENENIPYEKVKLAYGHNLDDNSDTILANIFKGERLKFMRPLTRFKYNEVDYQSFKIPLEECIIIRPMLPILERDIIKALEECGIEYYKDKDMCPYSRDRGDSVRRRCHEILEKLEEEIPNIREMVVSSALKTVEYYSKNPYGEDNL | soluble
MGSDKIHHHHHHMTKITVLSGKGGTGKTTVSVNMAKALSESYRVQLLDADVEEPNDHIFFNVDVSFEEPVHLMIPVVDNSVCIRCGECASTCQFGAISVFPSGTFVFESLCHGCGACSIMCPVNAISERPKEIGKIRFGTADGNISFGMGILNIGERTGVPVIRKLKKHIDEKADVVIVDAPPGTSCPVVESLRNTDFALLVTEPTAFGLHDLKLAVELTKEMGIPSGIVVNRYIPGNTIIEEFADEEGIPVLLKIPFKREIASLCAEGKLIVEAFQDMKKDFLELFEKIEVMVR | not soluble
MHRPITAGHTTSRLILDQLKQISRTPSESSVQSALSQQASMSSPVLERSKSAPALLTAAQRTMLAQVGACNSHLTSDENMAINELRLHKPRLPKDTWFFTDPNKDPDDVVTYTLGKQLQAEGFVHITDVVATLGDAEVRSQRAEMAKGVFNKLGLHDVHVSRGRDYAMNSLQSKEHAKFLLEGHALRAGPGEIHRDSLQDMSRRLARAPHGVGIVVIAGMSDINALITTCPDMVRERVDDITIMGGVEPLKDADGFVQPDARAYNNATDMDAARSLYRKAQELGIPLRIVTKEAAYKTAVSPSFYEGIAGSGHPVGHYLRDVQKSALKGLWEGIQAGLLPGLDDSWFFRTFMPNAQIEAAQLDKNKESSFEDIWPKVTKLNLYDPLTLLASVPGAAKLLFKPKAIHTEGFGVVEQVGPDDVTHPEKAKLLMSALAKSALVQSTVAPD | not soluble
MGSDKIHHHHHHMRRRVPLNSVRAFEAAARRMSLVQASDELCVTPTAVSHQIRQLEDFLQTKLFLRRSSRLELTPESRACLAKLTEALDIIDDAIAALHKPMDMPERLVVGASASVGSLWLMPRLRNFYRTAPEIDISLTTFIERSAIETDTSDVWICNWHTNLDRRVELLLEEDIIPVCSPQMAEEFGELSFDSLRELPLVHVDRAKASINGQYPDWDRYLREYGISRNDIAKGPRFNQAGPAIEAAKAGMGALLGRSILIERALETGELIRLGDPYPIRNPYYLISPLQPASNAVKMFKDWIFAQAKTRTSTYVELPHKNRRGSDFRLTV | not soluble
MATFSISAMAAQCGVTTANIRSWERYGLLQPTKDEAGNRFYCIEDAIRIQHIIDALSKGFSLKEIKPALYGEETHCRSGWLFYQEEILAQCRKFEPAKLRKLLWRYGREIPPCIVIESILRPLRLWLSAGDDDARRFEKALLDTAIIEYATFQLSSVRKAPAGTMLIAAFSLNDPIELWLETIKYCSEGMRVEVIPWQAPMPDLLSTSFEHIVLWHDETLTPAQENLIQALKESGKFSLHVKNGSGLTLLPAVYRQHEMPESMQHVAPQIHANGYEKSGTAR | not soluble
MNVDLHCHSTASDGALSPTALVARAHEYGVRVLSLTDHDTLEGLEEARTAAHSLGMQLVNGVELSCTWGGATIHVLGYGFDTQAPALTEAIARLHEGRWLRAEEISRKLAIKGMPGALEGARAIQQALGDSGNAPARPHFADFMVRAGFVKDRAEAFRKWLGAGKLGDVKQHWPTLEDTVATLRASGAWVSLAHPSHYDFTRSKRRKLVGDFVQAGGHAIEVVNGMQPADQVGTLAILAREFGLLVSAGSDFHGPGNWGEIGTYRPVPEDLPPLWCRFKHEQPTAAV | not soluble
MSLHASAIESIETIIVDLPTIRPHKLAMHTMQNQTLVLIRLRCADGIEGLGESTTIGGLAYGNESPDSIKTNIDRFVAPLLIGQDASNINAAMLRLEQSIRGNTFAKSGIESALLDAQGKRLGLPVSELLGGRVRDALPVAWTLASGDTAKDIAEAQKMLDLRRHRIFKLKIGAGEVDRDLAHVIAIKKALGDSASVRVDVNQAWDEAVALRACRILGGNGIDLIEQPISRNNRAGMVRLNASSPAPIMADESIECVEDAFNLAREGAASVFALKIAKNGGPRATLRTAAIAEAAGIGLYGGTMLEGGIGTLASAHAFLTLNKLSWDTELFGPLLLTEDILAEPPVYRDFHLHVSKAPGLGLSLDEERLAFFRRDKTTPVLHHTEGHHHHHH | soluble
MGSDKIHHHHHHMRLYTRTGDKGKTSVIGGRLAKDDTRVVAYGTTDELNSFVGSAITQLDENTFADIRGELFKIQHELFDCGGDLAMLKVKEDRPYKAKQEIVDFLEQRIDAYIKEAPELERFILPGGSEAAASLHVCRTIARRAERYVVRLQQEGEINPIVLKYLNRLSDYFFAVARVVNSRLQVPDVEYERSAIVFREGKRKEDKK | soluble
